The text below walks through data of paper PMC5376648, “Cell-free reconstitution reveals centriole cartwheel assembly mechanisms” (Nature Communications, 2017).

Series [1] concerns the molecule itself. Briefly: cryo-EM and cryo-electron tomography of assemblies formed in a cell-free assay; soluble protein alone (CrSAS-6_FL 10 uM or His-Stag-CrSAS-6_NL 20 uM in 20 mM Tris pH 7.5, 150 mM NaCl) dialysed >16 h against 10 mM K-PIPES pH 7.2; structures formed in solution vitrified and imaged.
Series [2] concerns the molecule itself. The series is described as follows: negative staining EM of assemblies; CrSAS-6_NL diluted in 10 mM K-PIPES pH 7.0 to 3 ug/ml, deposited on carbon-coated grids, stained with 2% uranyl acetate.

B1: full-length CrSAS-6 (HisCrSAS-6_FL) (natural protein, Chlamydomonas reinhardtii, UniProt A9CQL4 1-728, looked up)
chain: MPLLLDDGDPKAQTGFDLSTATTLFWRPVPVHVKQQDREDVLEELTFRILTGVAKQNHNLRILRIHISSDSDLFFLHTLEVSEEDFQSLKNDQGILVDFASFPGKIISLLEKCILAQPGDSPRFQAVLTIRGGESVFKIVEINDFKQLPHITLAFRPGNDSVVKQFLAFRLSEVKGTCHDLSDDLSRTRDDRDSMVAQLAQCRQQLAQLREQYDKHLLEVQAQAKTQQASAHEERIREKSQLKDQFEKERGEMEGRYRDQIAALNTRLGELDTENRKLREVKYELDTKVSELSHKLGSSEGSNRSLEEETARLRSLNQQLSSSKHELEIQLNEAKAKVLALDEKAQSQGDVIEQQRGRLRDMEAALRQTEQRCADLRDTLASAEGRAKEAQAEVLKGNQAIEKLTNDLRLAKEKTKRKAAIILRQEEELQEREQSLANATRDVGVLGQQAESLRKDVASLHSENDSLRSKLEDSKQQLQSNEQMIRWLNQQVTEAQLHASGATVAGSRYAFRPSAALPGSMPPPSVAATPAVGLLAAPGPSTAYKPGGTTSRYASTLGVTGLSSGLSGAGATSVGAAVAGGSYGAGGDSSYRPGVGGAYASSGGAGGFGGSVGGGGQVGGSGSAIGAATGAGSALGTYRSSYAASTHPSPGGVTAGMGSTLTTPAVNRYAAGSYSSVSSSLSFGGGLGAARAVDATPAASKYGVGFSNAAMGVVGTVGGAGGTDAQRA
notes: SAS-6 protein Bld12p (CrSAS-6) of Chlamydomonas reinhardtii, full length; A 6xHis tag stands between the Prescission site and CrSAS-6 and remains after cleavage; also called Bld12p; GST-HisCrSAS-6_FL (before cleavage); source: E. coli BL21(DE3), purified (glutathione agarose beads, eluted with Prescission Protease to remove GST); not shown: GST, N-terminal, cleaved; His6, N-terminal, kept
Regarding B1, in series [1], the binding result is “binds”.

B2: His-Stag-CrSAS-6_NL(1-503) (domain or fragment, Chlamydomonas reinhardtii, UniProt A9CQL4 1-503, looked up)
chain: MPLLLDDGDPKAQTGFDLSTATTLFWRPVPVHVKQQDREDVLEELTFRILTGVAKQNHNLRILRIHISSDSDLFFLHTLEVSEEDFQSLKNDQGILVDFASFPGKIISLLEKCILAQPGDSPRFQAVLTIRGGESVFKIVEINDFKQLPHITLAFRPGNDSVVKQFLAFRLSEVKGTCHDLSDDLSRTRDDRDSMVAQLAQCRQQLAQLREQYDKHLLEVQAQAKTQQASAHEERIREKSQLKDQFEKERGEMEGRYRDQIAALNTRLGELDTENRKLREVKYELDTKVSELSHKLGSSEGSNRSLEEETARLRSLNQQLSSSKHELEIQLNEAKAKVLALDEKAQSQGDVIEQQRGRLRDMEAALRQTEQRCADLRDTLASAEGRAKEAQAEVLKGNQAIEKLTNDLRLAKEKTKRKAAIILRQEEELQEREQSLANATRDVGVLGQQAESLRKDVASLHSENDSLRSKLEDSKQQLQSNEQMIRWLNQQVTEAQLHASGAT
notes: CrSAS-6 (Bld12p) of Chlamydomonas reinhardtii, residues 1-503; C-terminal truncation that keeps the N-terminal domain and the entire coiled coil; This form was used for cryo-EM and cryo-ET; source: E. coli BL21(DE3), purified (Ni-NTA, size exclusion chromatography)
Turning to B2, the binding result in series [1] is listed as “binds”.

B3: CrSAS-6_NL(1-503), 6xHis tag cleaved (domain or fragment, Chlamydomonas reinhardtii, UniProt A9CQL4 1-503, looked up)
chain: MPLLLDDGDPKAQTGFDLSTATTLFWRPVPVHVKQQDREDVLEELTFRILTGVAKQNHNLRILRIHISSDSDLFFLHTLEVSEEDFQSLKNDQGILVDFASFPGKIISLLEKCILAQPGDSPRFQAVLTIRGGESVFKIVEINDFKQLPHITLAFRPGNDSVVKQFLAFRLSEVKGTCHDLSDDLSRTRDDRDSMVAQLAQCRQQLAQLREQYDKHLLEVQAQAKTQQASAHEERIREKSQLKDQFEKERGEMEGRYRDQIAALNTRLGELDTENRKLREVKYELDTKVSELSHKLGSSEGSNRSLEEETARLRSLNQQLSSSKHELEIQLNEAKAKVLALDEKAQSQGDVIEQQRGRLRDMEAALRQTEQRCADLRDTLASAEGRAKEAQAEVLKGNQAIEKLTNDLRLAKEKTKRKAAIILRQEEELQEREQSLANATRDVGVLGQQAESLRKDVASLHSENDSLRSKLEDSKQQLQSNEQMIRWLNQQVTEAQLHASGAT
notes: CrSAS-6 (Bld12p) of Chlamydomonas reinhardtii, residues 1-503; This form was used for negative staining EM; also called 6xHis-CrSAS-6_NL(1-503) (before cleavage)
Consider B3, for which the binding result in series [2] is given as “binds”.
